Experimental data from the nanobody polyreactivity screen of Harvey et al. (2022).

test: yeast display, Sf9 membrane polyspecificity reagent, FACS + sequencing; frameworks hold sequencing errors
Procedure, shortened: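 Sorting gates, low and high (top ~1%), were placed on anti-HA fluorescence to track expression and on streptavidin fluorescence to track reagent binding. A clone's polyreactivity label is taken from the gate it came out of. The reagent was 10% biotinylated, detergent-solubilized Sf9 membrane, applied for 1 hour at 4 °C to galactose-induced yeast display cells.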

Row | Sequence | polyreactivity (PSR sort gate)
1 | QVQLVESGGGLVQTGGSLRLSCAASGFNFYINAMGWYRQAPVKERELVAAINWRTGSTYYADSVKGRFTISRDNAKNTVYLQMNSLKQEDTAVYYCAAYGYWRRADTEFDYWGQGTQVTVSS | low polyreactivity
2 | QVQLVESGGGLVQTGGSLRVSCAASGLIFSRSAMGWYRQAPGKVRELVAAISSRGGSTYYADSVKGRFTISRDNAKNTVYLQMKSLIPEDTAVYFCDASRSYVHPVIGYGYWGQGTQVTVSS | high polyreactivity
3 | QVQLVESGGGLVQVGGILLLSCAASGFTFYDYAMGWYRQAPGKERELVAAISRGGSTYYADSVKGRFTISRDNAKNTVNLQMNSLKPEDTAVYYCNARPTRIYHGMVYWGQGTQVTVSS | low polyreactivity
4 | QVQLVESGGGLYQAGGSLRLSCAASGRIFATNAMRWSRQAPGKERELVATITRSAGRTYYADSVKGRFTISRDNAKNTVYLQMNSLKPEDTAVYYCAASYWDTEPGYREYDYWGQGTQVTVSS | low polyreactivity
5 | QVQLVESGGGSVQAGGSLRLSCAASGFTIRTYAMGWYRQAPGKESELVAAITSSGSSTYYAYSVKGRFTISRDNAKNTVYLQMNSLKPEDTAVYYCAADAPRSYRFGYWGQGTQVTVSS | high polyreactivity
6 | QVQLVESGGGVDQAGGSLRLSCAASGLSLRVNVMGWYRPAPGKERELVAAISGGGRTYYADSVKGRFTISRDNAKNTVYLQMNSLKPEDTAVYYCATVRRRLSLTYDYWGQGTQVTVSS | high polyreactivity
7 | QVQLVESGGGVQAGGSLRLSCAASGRTFVPYAMGWYRQAPGKERELVAAISSIGDSTSYADSVKGRFTISRDNAKNTVYLQMNCLKPEDTAVYYFAAAEDRDRLVPKLDYWGQGTQVTVSS | low polyreactivity
8 | QVQLVESGGGVVQAGGSLRLSCAASGFIFEYYPMGWYRPAPGKERELVAAISWSGGSTYYADSVKGRFTISRDNAKNTVYLQMNSLKPEDTAVYYCAAGRYFHHPTSYYYWGQGTQVTVSS | high polyreactivity
9 | QVQLVESGGGVVQAGGSLRLSCAASGFIFYQYAMGWYRQAPGKERELVAAITSRGGRTYYADSVKGRFTISRDNAKNTVYLQMNSLKPEDTAVYYCAVRKASDYYYWGQGTQVTVSS | high polyreactivity
10 | QVQLVESGGGVVQAGGSLRLSCAASGFTFVRYTMGWYRQAPGKERELVAAITKRGGSTYYADSVKGRFTISRDNAKNTVYLQMNSLKPEDTAVYYCAAAVGNTDREYDYWGQGTQVTVSS | low polyreactivity
11 | QVQLVESGGGVVQAGGSLRLSCAASGIIFYRYAMGWYRQAPGKERELVARITNGGNTYYADSVKGRFTISRDNAKNTVYLQMNSLKPEDTAVYYCAVRVFGYSPYSNWMYYWGQGTQVTVSS | high polyreactivity
12 | QVQLVESGGGVVQAGGSLRLSCAASGITFTVNAIGWYRQAPGKDREFFAAITYSGGNTYYADSVKGRFTISRDNAKNTVYLQMNSLTPEDTAVYYCNSDSAVGIVGARFFYDYWGQGTQVTVSS | low polyreactivity
13 | QVQLVESGGGVVQAGGSLRLSCAASGITLAWYAMGWSRQAPGKERELVAAINSGGSTYYADSVKGRFTISRDTAKNTVYLQMNSLKPEDTAVYYCNTDDDSSSTGYYSWGQGTQVTVSS | low polyreactivity
14 | QVQLVESGGGVVQAGGSLRLSCAASGITYGRNTMGWYIHAPGKERELVAAIDSGGNTYADSVKGRFTISRDNAKNTVYLQMNSLKPEDTAVYYGAATFIQVVVNVQLYDYDYWGQGTQVNVSS | low polyreactivity
15 | QVQLVESGGGVVQAGGSLRLSCAASGLIFRRYAMGWSRQAPGIDRELVAAISGNGGSTYYADSVKGRFTISRDNAKNTVYVQMTCLKPEDTAVYYCAARSLGIYNYWGQGTQVTVSS | high polyreactivity
16 | QVQLVESGGGVVQAGGSLRLSCAASGRIFPYNAMGWYRQAPGKERELVAAISSGGSTTYADSVKGRFTISRDNAKNTVYLHMNSLKPEDTAVYYCAREVYRHYAPVGYDYWGQGTQVTVSS | high polyreactivity
17 | QVQLVESGGGVVQAGGSLRLSCAASGRIFRYYAMGWYRQAPGKERELVAGITTGGGSTYYADSVKGRFTISRDNAKNTVYLQMNSLKPEDTAVYYCAARYYTTFYWGQGTQVTVSS | high polyreactivity
18 | QVQLVESGGGVVQAGGSLRLSCAASGRIFSVYAMVWYRQAPGKEREFVGSISWRGGRTYYADSVKGRFTISRDNAKNTVYLQMISLKPEDTAVYYCAAVSYPAVYGFDYWGQGTQVTVSS | high polyreactivity
19 | QVQLVESGGGVVQAGGSLRLSCAASGRTFCIYAMGWYRPAPGKEREVVAAITGRGGSTHYADSVKGRFTISRDNAKNTVYLQMNSLKPEDTAVYYGAADYRYNRGITSNKDYDYWGQGTQVTVSS | low polyreactivity
20 | QVQLVESGGGVVQAGGSLRLSCAASGRTFGWNTMGWYRQAPGKERELVAAISYSTGRTYYADSVKGRFTISRDNAKYTVYLQMNSLKPEDTAVYYCAATRPYRYNYWGQGTQVTVSS | high polyreactivity
21 | QVQLVESGGGVVQAGGSLRLSCAASGRTFRRNAMGWYRQAPGKERELVAAITSSGGSTYYADSVKGRFTISRDNAKNTVYFQMNSLKPEDTEVYYCNAFYTGRSAPDSWGQGTQVTVSS | high polyreactivity
22 | QVQLVESGGGVVQAGGSLRLSCAASGSHFISNAMGWYRQAPGKERELVAAITSSGGSTYYADSVKGRFTISRDNAKNTVYLQMNSLKPEVTAVYYCAARPGRNYYYWGQGTQVTVSS | high polyreactivity

Row | Sequence | polyreactivity (PSR sort gate)
23 | QVQLVESGGGVVQAGGSLRLSCAASGSIFNRYAMGWYRQAPGKERELVAATSSGGSTYYADSVKGRFTISRDNAKNTVYLQMNSLKPEDTAVYYCAARSRYRSTPPTYDYWGQGTQVTVSS | low polyreactivity
24 | QVQLVESGGGVVQAGGSLRLSCAASGSIFRRNAMGWYRQAPGKERELVAAISWTTGSTYYADSVKGRFTISRDNAKNTVYLLMNSLKAEDTSVYYCAAVIRSRYSYYEYDFWGQGTKVTVSS | high polyreactivity
25 | QVQLVESGGGVVQAGGSLRLSCAASGSTFTTNAMGWYRQAPGKDREFVAAIRRTSGRTYYADSVKGRFTISRDNAKNTVYLQMNSLKPEDTAVFYCATDSYSPYGLKSRYDYWGQGTQVTVSS | high polyreactivity
26 | QVQLVESGGGVVQAGGSLRVRCAASGIIYFIDYAMGWYRQAPGKERELVAAITSGGSTNYADSVKGRFTISRDNAKYTVYLQKNRLKPEDTAVYYCAAYLYSGSQYYFWGQGTQVIVSS | high polyreactivity
27 | QVQLVESGGGVVQAGGSLRVSCAASGRIFYGNAMGWYRQAPGKERELVAVISSGGSTYYADSVKGRFTISRDNAKNTVYFQMNSLKPEDTAVYYCAAQVRKYKDGSFRYHYWGQGTQVNVSS | high polyreactivity
28 | QVQLVESGGGVVQAGRSLRLSCAASGSTFWAYLMGWYRQAPGIERELVASISRGGSTNYTDSVKGRFTISRDNAKNTVYLQMNSLKPEDTEVYYCAKRPYPYKYDYWGQGRQVTVSS | high polyreactivity
29 | QVQLVESGGGVVQARGSLRLSCAASGSTFDVNAMGWYRQAPWKDRELVAAISWNSGTTYYADSVKGRFTISRDNAKNSVYLQMNSLKPEDTAVYYCAASYGTGRRSKYGYWGQGTQVTVSS | high polyreactivity
30 | QVQLVESGGPLVQAGGSLLLSCAASGFTFTVYAKGWYRQAPGKERELVAAITYNGGSTYYADSVKGRFTISRDNAKNTVYLQMNSLKPEDTAVYYCAAEVFLRSLGYWYDFWGLGTQVTVSS | high polyreactivity
31 | QVQLVESGGRIVQAGGSLRLICAASGRIFVRNAMGWYRQAPGKERELVAAITTSGGRTYYADSVKGRFTISRDNAKNTVYLQMNSLKPEDTAVYYCAADTRYRNYPYYYWGQGTQVTVSS | high polyreactivity
32 | QVQLVESGGRIVQAGGSLRLICASSGLIFYDNMGWYRQAPGKERELVAAISSSGGSRTYADSVKGRFTISRDNAKNTVYLQMNSLKPEDTAVYYCAVDKHYYGRYGVTYDYDYWGQGTQVTVSS | low polyreactivity
33 | QVQLVESGGRIVQAGGSLRLSCAASGFIYSKYAMGWSRPAPGKEGQLVAAISSSGGYTYYADSVKGRFTISRDNAKNTVYLQMNSLKPEATAVYYCNADYLFYAFDYWGHGTQVTVSS | low polyreactivity
34 | QVQLVESGGRIVQAGGSLRLSCAASGSTFLYYDMGWYRQAPGKERELVAAITNGGNTYYADSVKGRFTISRDNAKNTVYLQKNSRKPEDTAVYYCAKLYTDAIVWSAYDYWGQGTQVTVSS | low polyreactivity
35 | QVQLVESGGRLFQAGGSLRLSCAACGFTIPYYAMRWYRKAPGKERELVAAIDWTGGSTYYADSVKGRFTISRDKAKNTVYLQMNSRKPEETEVYYCAREVDYSISSPTPPVVELDYWGQGTQVTVSS | low polyreactivity
36 | QVQLVESGGRLFQAGGSLRLSCAASGRIFYHNALGWYRQAPGKERELVADNASGGSTYYADSVKARFTISRDNAKNTVYLQMNSLKPEDTAVYYCAAEDEDSIFPFPYGAGSLFDFWGQGTQVTVSS | low polyreactivity
37 | QVQLVESGGRLGQAVGSLRLSCAASGSIFLQNAMGWYRQAPGKERELVAAITNGGSTNYADSVKGRCTISRDNAKNTVYLQINSLKPEDTAVYYCAAYPLYTGSYDRGGYWGLGTQVTVSS | low polyreactivity
38 | QVQLVESGGRLVEAGGSLRLSCAASGRTIPAYALGWYRQAPGKERELVAGISYRGGSTYYADSVKGRFTISRDKAKNTVYLPMNSLKPEDTAVYYCARVYSRNKGVYWGQGTQVPVSS | low polyreactivity
39 | QVQLVESGGRLVQAGGILRLSCAASGLTFADNAMGWYRQAPGKERELVATISYSGGSTYYADSVKGRFTISRDNAKNTVYLQMNSLKPEDTAVYYCATVWETKAYSRIQWYYYWGQGTQVTVSS | low polyreactivity
40 | QVQLVESGGRLVQAGGRLRLSCAASGFTFGSYAMGWYRQAPGKERELVPSISSAGRTYYADSVKGRFTISRDNAKNTVYLQMNSLKPEDTAVYYCNTDSRVTIYDYDYWGQGTQVTVSS | low polyreactivity
41 | QVQLVESGGRLVQAGGSIRLICAASGFTFIGYAMGWYRQAPGKERELVADITYSGSSTYYADSVKGRFTISRDNAKNTVYLQMNSLKPEDTAVYYCAAEAYYYCFDVDYWGQGTLVTVSS | low polyreactivity
42 | QVQLVESGGRLVQAGGSLLLSCAASGIIFYDYAMGWYRRAPGKERQLVAAITSGGSTNYADSVKGRFTISRDNAKNTVYLQMNSLKPEDTAVYYCAATYWSWISLRWYEYYYWGEGTQVTVSS | low polyreactivity
43 | QVQLVESGGRLVQAGGSLRLLCAASGLILHKYAMGWYRQAPGKERELVASINSGANTNYADSVKGRFTISRDNAKNTVYLQMNSLKPEDTAVYYCNADPGFRSGDYGYSSFDYGGQGTQVTVSS | low polyreactivity
